These results are taken from patent publication US20190119389A1 (POTENZA THERAPEUTICS, published 2019).

The target of experiment [1] is T1, Recombinant human NRP-1-Fc fusion protein, a1a2b1b2 domains (human, UniProt O14786 22-583, limits assumed).
T1 construct: Only the named domains of hNRP-1 are in the construct; not shown: Fc
In words: BLI Octet QKe, antibody on AHC sensor, NRP-1-Fc fragment 500 nM.

Experiment [2] has as its target T2, Recombinant human NRP-1-Fc fusion protein, a1a2b1 domains (human, UniProt O14786 22-424, limits assumed).
T2 construct: Only the named domains of hNRP-1 are in the construct; not shown: Fc
The experiment is described as above.

The target in experiment [3] is T3, Mouse NRP-1 His (mouse, UniProt P97333 22-856).
T3 construct: Recombinant monomeric protein; also called mNRP-1; not shown: His tag
As to the kind of experiment: BLI ForteBio, IgG1 N297A on AHQ sensor, 100 nM monomeric antigen, 1:1 fit. On the technique in general: In BLI a coated tip is dipped into the sample, and binding shifts an interference pattern.

Experiment [4] addresses T4, Human NRP-1 His (human, UniProt O14786 22-856).
T4 construct: Recombinant monomeric protein; Biotinylated in the MSD-SET assay; also called hNRP-1; not shown: His tag
The experiment is described as above.

In experiment [5] the target is T5, Cyno NRP-1 His (cynomolgus monkey, UniProt O14786 22-856 (human entry), limits assumed).
T5 construct: Recombinant monomeric protein; also called cynomolgus monkey NRP-1-His; cNRP-1; not shown: His tag
T5 chain: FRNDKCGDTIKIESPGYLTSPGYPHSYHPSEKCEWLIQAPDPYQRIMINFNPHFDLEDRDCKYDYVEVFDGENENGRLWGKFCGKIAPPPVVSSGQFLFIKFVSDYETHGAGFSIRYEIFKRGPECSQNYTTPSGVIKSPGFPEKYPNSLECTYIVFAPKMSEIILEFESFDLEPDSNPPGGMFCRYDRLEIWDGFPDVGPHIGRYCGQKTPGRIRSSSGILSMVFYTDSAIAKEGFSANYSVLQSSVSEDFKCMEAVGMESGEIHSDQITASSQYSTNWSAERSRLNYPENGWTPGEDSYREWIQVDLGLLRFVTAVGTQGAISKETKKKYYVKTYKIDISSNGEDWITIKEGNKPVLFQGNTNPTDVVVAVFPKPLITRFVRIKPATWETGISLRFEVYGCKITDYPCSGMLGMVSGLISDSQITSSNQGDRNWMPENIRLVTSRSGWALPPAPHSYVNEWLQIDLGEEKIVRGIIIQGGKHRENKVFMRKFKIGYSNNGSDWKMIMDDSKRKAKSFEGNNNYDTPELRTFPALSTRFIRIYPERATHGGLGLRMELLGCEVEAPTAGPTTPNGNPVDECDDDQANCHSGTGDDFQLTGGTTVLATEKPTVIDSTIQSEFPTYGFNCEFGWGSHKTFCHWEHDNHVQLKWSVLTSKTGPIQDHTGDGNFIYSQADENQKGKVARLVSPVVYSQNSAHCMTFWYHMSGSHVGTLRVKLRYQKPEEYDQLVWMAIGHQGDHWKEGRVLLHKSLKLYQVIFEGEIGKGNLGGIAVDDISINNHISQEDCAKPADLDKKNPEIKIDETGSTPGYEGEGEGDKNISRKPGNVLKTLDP
The description is as above.

Experiment [6] has as its target T6, recombinant human NRP-1 (human, UniProt O14786 22-856, limits assumed).
T6 construct: also called biotinylated human NRP-1
As to the kind of experiment: blocking ELISA: human NRP-1 coated, VEGFA added with IgG1 antibody; competitor VEGFA. In general terms: ELISA stands for enzyme-linked immunosorbent assay.
Target sequence in this assay (O14786 22-856 V179A limits assumed): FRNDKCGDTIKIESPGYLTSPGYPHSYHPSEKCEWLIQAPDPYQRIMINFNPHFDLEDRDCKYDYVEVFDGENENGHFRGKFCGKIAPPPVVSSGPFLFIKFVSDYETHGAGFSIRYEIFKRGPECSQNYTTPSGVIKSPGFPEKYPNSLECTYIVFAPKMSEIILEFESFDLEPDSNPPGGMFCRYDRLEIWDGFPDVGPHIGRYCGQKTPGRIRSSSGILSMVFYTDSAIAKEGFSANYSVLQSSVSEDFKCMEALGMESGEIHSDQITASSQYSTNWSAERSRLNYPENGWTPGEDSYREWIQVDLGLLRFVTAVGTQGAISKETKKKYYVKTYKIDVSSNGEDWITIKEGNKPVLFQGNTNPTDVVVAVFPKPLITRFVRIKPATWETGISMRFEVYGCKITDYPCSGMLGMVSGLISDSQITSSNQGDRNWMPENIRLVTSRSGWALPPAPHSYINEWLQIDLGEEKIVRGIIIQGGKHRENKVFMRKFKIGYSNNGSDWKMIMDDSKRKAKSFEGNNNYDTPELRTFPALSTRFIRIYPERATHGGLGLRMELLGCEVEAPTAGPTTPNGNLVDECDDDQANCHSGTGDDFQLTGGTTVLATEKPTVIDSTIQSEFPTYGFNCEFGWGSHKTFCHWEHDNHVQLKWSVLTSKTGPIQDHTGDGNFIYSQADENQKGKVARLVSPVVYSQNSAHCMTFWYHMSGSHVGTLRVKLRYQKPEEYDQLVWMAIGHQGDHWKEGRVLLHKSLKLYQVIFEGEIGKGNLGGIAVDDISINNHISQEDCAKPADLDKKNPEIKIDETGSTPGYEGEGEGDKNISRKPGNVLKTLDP

Experiment [7] deals with T7, monomeric mutant NRP1 b1 Y354A (human, UniProt O14786 273-427, limits assumed).
T7 construct: Single point mutant of the human NRP1 b1 domain
T7 chain: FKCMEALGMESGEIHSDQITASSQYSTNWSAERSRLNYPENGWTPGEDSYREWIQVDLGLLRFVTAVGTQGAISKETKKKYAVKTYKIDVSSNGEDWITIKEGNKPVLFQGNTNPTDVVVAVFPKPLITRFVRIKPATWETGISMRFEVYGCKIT
As to the kind of experiment: BLI Octet, MAB12 captured on anti-human Fc sensors, monomeric mutant NRP1 b1.

In experiment [8] the target is T8, monomeric mutant NRP1 b1 P317A (human, UniProt O14786 273-427, limits assumed).
T8 construct: Single point mutant of the human NRP1 b1 domain
T8 chain: T7 chain with P45A, A82Y
Described as above.

In experiment [9] the target is T9, monomeric mutant NRP1 b1 K351N (human, UniProt O14786 273-427, limits assumed).
T9 construct: Single point mutant of the human NRP1 b1 domain
T9 chain: T7 chain with K79N, A82Y
The description is as above.

The target of experiment [10] is T10, monomeric mutant NRP1 b1 K352G (human, UniProt O14786 273-427, limits assumed).
T10 construct: Single point mutant of the human NRP1 b1 domain
T10 chain: T7 chain with K80G, A82Y
The experiment is described as above.

In experiment [11] the target is T11, monomeric mutant NRP1 b1 Y353A (human, UniProt O14786 273-427, limits assumed).
T11 construct: Single point mutant of the human NRP1 b1 domain
T11 chain: T7 chain with Y81A, A82Y
Described as above.

Experiment [12] addresses T12, monomeric mutant NRP1 b1 D320A (human, UniProt O14786 273-427, limits assumed).
T12 construct: Single point mutant of the human NRP1 b1 domain
T12 chain: T7 chain with D48A, A82Y
Described as above.

Experiment [13] deals with T13, monomeric mutant NRP1 b1 T349A (human, UniProt O14786 273-427, limits assumed).
T13 construct: Single point mutant of the human NRP1 b1 domain
T13 chain: T7 chain with T77A, A82Y
The description is as above.

Experiment [14] concerns the target T14, monomeric mutant NRP1 b1 T413A (human, UniProt O14786 273-427).
T14 chain: T7 chain with A82Y, T141A
Described as above.

For experiment [15], the target named is T15, monomeric mutant NRP1 b1 E412H (human, UniProt O14786 273-427, limits assumed).
T15 construct: Single point mutant of the human NRP1 b1 domain
T15 chain: T7 chain with A82Y, E140H
Described as above.

The target in experiment [16] is T6, recombinant human NRP-1. As to the kind of experiment: blocking ELISA: SEMA3A coated, biotinylated human NRP-1 preincubated with IgG1 antibody; competitor SEMA3A.
Target sequence in this assay (O14786 22-856 V179A limits assumed): as the sequence (O14786 22-856 V179A limits assumed) above
Experiment [17] addresses T16, Recombinant human NRP-1-Fc fusion protein, a2b1b2 domains (human, UniProt O14786 147-583, limits assumed).
T16 construct: Only the named domains of hNRP-1 are in the construct; not shown: Fc
As to the kind of experiment: BLI Octet QKe, antibody on AHC sensor, NRP-1-Fc fragment 500 nM.

Experiment [18] has as its target T6, recombinant human NRP-1. As to the kind of experiment: blocking ELISA, average of n=2: SEMA3A coated, biotinylated human NRP-1 preincubated with IgG4 antibody; competitor SEMA3A.
Target sequence in this assay (O14786 22-856 V179A limits assumed): as the sequence (O14786 22-856 V179A limits assumed) above
The target in experiment [19] is T3, Mouse NRP-1 His. In words: BLI Octet QKe, IgG4 S228P on AHC sensor, multi-concentration monomeric antigen, global 1:1 fit.
Experiment [20] has as its target T4, Human NRP-1 His. The experiment is described as above.
Experiment [21] addresses T5, Cyno NRP-1 His. Described as above.
The target in experiment [22] is T6, recombinant human NRP-1. In words: blocking ELISA, average of n=2: human NRP-1 coated, VEGFA added with IgG4 antibody; competitor VEGFA.

Positions count from the first letter of the chain named. Names and notes keep the numbering of the source.

T3 sequence (P97333 22-856 limits assumed): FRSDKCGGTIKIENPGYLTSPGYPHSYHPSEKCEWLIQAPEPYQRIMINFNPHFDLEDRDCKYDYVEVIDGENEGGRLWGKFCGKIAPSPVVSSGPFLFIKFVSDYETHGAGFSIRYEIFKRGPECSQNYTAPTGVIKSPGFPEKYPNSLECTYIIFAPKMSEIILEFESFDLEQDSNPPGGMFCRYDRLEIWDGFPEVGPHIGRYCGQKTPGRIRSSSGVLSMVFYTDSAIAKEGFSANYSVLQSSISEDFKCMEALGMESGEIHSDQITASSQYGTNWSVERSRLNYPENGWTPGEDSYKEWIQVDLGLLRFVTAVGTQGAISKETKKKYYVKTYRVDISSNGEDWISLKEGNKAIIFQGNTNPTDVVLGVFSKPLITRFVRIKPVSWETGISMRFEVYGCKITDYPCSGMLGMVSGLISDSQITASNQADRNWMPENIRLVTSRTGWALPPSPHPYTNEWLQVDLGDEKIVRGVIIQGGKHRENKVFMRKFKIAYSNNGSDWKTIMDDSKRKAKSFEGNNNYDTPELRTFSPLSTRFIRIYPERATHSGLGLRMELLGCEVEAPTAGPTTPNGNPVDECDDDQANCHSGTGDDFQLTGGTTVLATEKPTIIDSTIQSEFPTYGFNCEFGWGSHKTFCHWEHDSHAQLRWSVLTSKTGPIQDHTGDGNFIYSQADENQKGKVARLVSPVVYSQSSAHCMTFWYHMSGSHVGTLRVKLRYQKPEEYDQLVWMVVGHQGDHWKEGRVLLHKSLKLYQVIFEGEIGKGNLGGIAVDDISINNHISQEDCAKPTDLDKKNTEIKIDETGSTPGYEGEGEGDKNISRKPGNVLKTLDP
T4 sequence (O14786 22-856 V179A limits assumed): as the sequence (O14786 22-856 V179A limits assumed) above
T16 sequence (O14786 147-583 V179A limits assumed): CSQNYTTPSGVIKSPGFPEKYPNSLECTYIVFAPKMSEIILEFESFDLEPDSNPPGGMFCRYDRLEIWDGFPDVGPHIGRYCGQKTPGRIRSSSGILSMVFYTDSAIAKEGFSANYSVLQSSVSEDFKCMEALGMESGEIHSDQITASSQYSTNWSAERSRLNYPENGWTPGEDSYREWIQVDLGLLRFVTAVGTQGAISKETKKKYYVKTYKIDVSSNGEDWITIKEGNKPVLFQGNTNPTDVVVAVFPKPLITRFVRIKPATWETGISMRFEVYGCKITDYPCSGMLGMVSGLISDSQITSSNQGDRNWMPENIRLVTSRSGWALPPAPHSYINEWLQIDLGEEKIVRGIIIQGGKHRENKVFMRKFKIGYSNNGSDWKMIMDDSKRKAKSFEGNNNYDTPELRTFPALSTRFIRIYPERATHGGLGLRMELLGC

B1: SEC3 (antibody, human IgG1, kappa, V domains shown)
VH: EVQLVESGGGLVQPGGSLRLSCAASGFTISGYGIHWVRQAPGKGLEWVAYIYPDSGYTDYADSVKGRFTISADTSKNTAYLQMNSLRAEDTAVYYCAREDFRNRRRLWYVMDYWGQGTLVTVSS
VL: DIQMTQSPSSLSASVGDRVTITCRASQDVSTAVAWYQQKPGKAPKLLIYSASFLYSGVPSRFSGSGSGTDFTLTISSLQPEDFATYYCQQAWAYLPTFGQGTKVEIKR
notes: Appendix A gives 144 as light chain and 145 as heavy chain; also called pan-anti-NRP-1 antibody
Turning to B1, the binding result in experiment [1] and in experiment [2] was “binds” each time.

B2: MAB12 (antibody, V domains shown)
VH: EVQLLESGGGLVQPGGSLRLSCAASGFTFSSVAMVWVRQAPGKGLEWVSAISGSGGATYYADSVEGRFTISRDNSKNTLYLQMNSLRAEDTAVYYCAKDPGYDSSRYYYSNYGMDVWGQGTTVTVSS
VL: DIQMTQSPSSLSASVGDRVTITCRASQSISSYLNWYQQKPGKAPKLLIYGASSLQSGVPSRFSGSGSGTDFTLTISSLQPEDFATYYCQQTYSLYTFGGGTKVEIK
Consider B2, for which the values for the Kd with Mouse NRP-1 His [3], with Human NRP-1 His [4] and with Cyno NRP-1 His [5] were 440 pM, 481 pM and 469 pM, respectively. Also, the IC50 is 6000 pM in the experiment with recombinant human NRP-1 [6] and 800 pM with recombinant human NRP-1 [16]. The binding result in experiment [7] is “binds”; in experiment [8] it was “binds”; in experiment [9], “no binding”; in [10], “binds”; in experiment [11], “binds”; in experiment [12] it was “binds”. The results for the binding result in experiment [13], in [14] and in experiment [15] were “binds”, “binds” and “no binding”, respectively.

B3: anti-NRP Antibody SEC10 (antibody, human IgG1, kappa, V domains shown)
VH: EVQLVESGGGLVQPGGSLRLSCAASGFTFSSYAMSWVRQAPGKGLEWVSQISPAGGYTNYADSVKGRFTISADTSKNTAYLQMNSLRAEDTAVYYCARGELPYYRMSKVMDVWGQGTLVTVSS
VL: DIQMTQSPSSLSASVGDRVTITCRASQYFSSYLAWYQQKPGKAPKLLIYGASSRASGVPSRFSGSGSGTDFTLTISSLQPEDFATYYCQQYLGSPPTFGQGTKVEIKR
For B3, the binding result in [1] and in [17] was “binds” throughout.

B4: MAB13 IgG4 S228P (antibody, V domains shown)
VH: QVQLQQWGAGLLKPSETLSLTCAVYGGSFRGYYWEWIRQPPGKGLEWIGEISHSGSTNYNPSLKSRVTISVDTSKNQFSLKLSSVTAADTAVYYCARARPYREPYGMDVWGQGTTVTVSS
VL: DIQLTQSPSSVSASVGDRVTITCRASQDISSWLAWYQQKPGKAPKLLIYAASSLQSGVPSRFSGSGSGTDFTLTISSLQPEDFATYYCQQELAFPRTFGGGTKVEIKR
Consider B4, for which the IC50 with recombinant human NRP-1 [18] stood at 900 pM; with recombinant human NRP-1 [22], 2900 pM. Besides, the Kd in the experiment with Mouse NRP-1 His [19] was determined as 3700 pM; in the experiment with Human NRP-1 His [20], 960 pM; with Cyno NRP-1 His [21], 940 pM.

B5: MAB14 IgG4 S228P (antibody, V domains shown)
VH: B4 VH with I37S, S84P
VL: B4 VL
Turning to B5, the IC50 with recombinant human NRP-1 [18] was determined as 600 pM; in the experiment with recombinant human NRP-1 [22] it was 2500 pM. Further, the Kd in the experiment with Mouse NRP-1 His [19] was 2700 pM; with Human NRP-1 His [20], 870 pM; with Cyno NRP-1 His [21], 740 pM.

The term Kd denotes the concentration at which binding is half-saturated. Lower therefore signals a tighter complex. As a reminder, the IC50 is the midpoint of a concentration-inhibition curve.
